Test results from patent US20040091500A1.
Numbering of substitutions follows the chain as printed.

Tests used:
[1] = molecular target: Serum IgE from a pool of birch allergic patients (human); test: fluid-phase IgE-inhibition assay
[2] = molecular target: Serum IgE from a pool of birch allergic patients (human); test: fluid-phase IgE-inhibition assay; competitor biotinylated Bet v 1 no. 2801

B1: Bet v 1 mutant Asn28Thr+Lys32Gln (protein)
chain: GVFNYETETTSVIPAARLFKAFILDGDTLFPQVAPQAISSVENIEGNGGPGTIKKISFPEGLPFKYVKDRVDEVDHTNFKYNYSVIEGGPIGDTLEKISNEIKIVATPDGGSILKISNKYHTKGDHEVKAEQVKASKEMGETLLRAVESYLLAHSDAYN
With B1 the factor by which affinity is lowered vs recombinant Bet v 1 [1] was 2 fold.

B2: Recombinant Bet v 1 No. 2801 (protein)
chain: B1 chain with T28N, Q32K
B2 was tested, and the amount to reach 80% inhibition [2] was 20 ng.

B3: Bet v 1 Triple-patch mutant (Asn28Thr, Lys32Gln, Glu45Ser, Pro108Gly) (protein)
chain: B1 chain with E45S, P108G
In the case of B3, the amount to reach 80% inhibition [2] is reported as 400 ng, the factor of decrease in affinity vs recombinant Bet v 1 (at 50% inhibition) [1] is reported as 5 fold and the factor of decrease vs recombinant Bet v 1 (at 80% inhibition) [1] is reported as 20 fold.

B4: Bet v 1 Pro108Gly mutant (protein)
chain: B1 chain with T28N, Q32K, P108G
Work on B4 yielded a factor by which affinity is lowered vs recombinant Bet v 1 [1] of 2 fold.

B5: Bet v 1 Glu45Ser mutant (protein)
chain: B1 chain with T28N, Q32K, E45S
With B5 the factor by which affinity is lowered vs recombinant Bet v 1 [1] was 2 fold.
